Substitutions are numbered along the chain they refer to. Each block holds one binder with its values, some of them ahead of it.
Legend:
[1] = biological target: T1, chimera of human IL-3Rα residues 101-377 with GM-CSFRα domains (human, UniProt P15509 23-114); assay: flow cytometry, transfected 293F cells
T1 construct: on 293F cells
T1 sequence: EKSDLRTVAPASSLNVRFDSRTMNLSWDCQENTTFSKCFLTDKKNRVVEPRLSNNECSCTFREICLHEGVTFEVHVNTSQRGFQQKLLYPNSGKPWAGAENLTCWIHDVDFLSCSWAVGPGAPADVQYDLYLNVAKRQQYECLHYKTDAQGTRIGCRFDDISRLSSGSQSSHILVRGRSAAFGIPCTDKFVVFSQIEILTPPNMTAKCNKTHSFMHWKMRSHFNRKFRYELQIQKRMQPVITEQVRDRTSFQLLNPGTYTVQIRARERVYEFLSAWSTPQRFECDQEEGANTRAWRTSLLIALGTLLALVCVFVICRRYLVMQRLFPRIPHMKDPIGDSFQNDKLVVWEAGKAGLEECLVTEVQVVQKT
Source text: Expression constructs were generated of frill length human IL-3Rα or of proteins comprising hIL-3Rα domains with various GM-CSFRα domains as depicted in FIG. 1A. […] Results are tabulated in Table 1 with positive staining (+) and negative staining (−) indicated.

[2] = biological target: T2, soluble human IL-3Rα 1-306-His S59A (human, UniProt P26951 19-307); assay: Western blot, supernatants of 293FS cells
T2 construct: supernatant of 293FS cells; also called S59, soluble alanine
T2 sequence: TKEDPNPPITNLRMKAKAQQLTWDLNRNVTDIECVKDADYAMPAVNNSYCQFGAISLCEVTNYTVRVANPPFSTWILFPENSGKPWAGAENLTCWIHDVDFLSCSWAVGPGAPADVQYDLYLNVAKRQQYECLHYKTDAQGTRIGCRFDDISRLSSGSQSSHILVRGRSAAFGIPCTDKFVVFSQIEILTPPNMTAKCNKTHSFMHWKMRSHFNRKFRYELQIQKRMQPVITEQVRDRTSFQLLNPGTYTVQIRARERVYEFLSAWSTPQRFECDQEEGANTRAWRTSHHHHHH

[3] = biological target: T3, soluble human IL-3Rα 1-306-His F70A (human, UniProt P26951 19-307); assay: Western blot, supernatants of 293FS cells
T3 construct: supernatant of 293FS cells; also called F70, soluble alanine
T3 sequence: T2 sequence with A41S, F52A

[4] = biological target: T4, soluble human IL-3Rα 1-306-His R84A (human, UniProt P26951 19-307); assay: Western blot, supernatants of 293FS cells
T4 construct: supernatant of 293FS cells; also called R84, soluble alanine
T4 sequence: T2 sequence with A41S, R66A

[5] = biological target: T5, soluble human IL-3Rα 1-306-His P88A (human, UniProt P26951 19-307); assay: Western blot, supernatants of 293FS cells
T5 construct: supernatant of 293FS cells; also called P88, soluble alanine
T5 sequence: T2 sequence with A41S, P70A

[6] = biological target: T6, soluble human IL-3Rα 1-306-His F90A (human, UniProt P26951 19-307); assay: Western blot, supernatants of 293FS cells
T6 construct: supernatant of 293FS cells; also called F90, soluble alanine
T6 sequence: T2 sequence with A41S, F72A

[7] = biological target: T7, soluble human IL-3Rα 1-306-His W93A (human, UniProt P26951 19-307); assay: Western blot, supernatants of 293FS cells
T7 construct: supernatant of 293FS cells; also called W93, soluble alanine
T7 sequence: T2 sequence with A41S, W75A

binding result [1]: no binding
B1: monoclonal antibody 7G3 (antibody, V domains shown)
VH: EVQLQQSGPELVKPGASVKMSCKASGYTFTDYYMKWVKQSHGKSLEWIGDIIPSNGATFYNQKFKGKATLTVDRSSSTAYMHLNSLTSEDSAVYYCTRSHLLRASWFAYWGQGTLVTVSA
VL: DFVMTQSPSSLTVTAGEKVTMSCKSSQSLLNSGNQKNYLTWYLQKPGQPPKLLIYWASTRESGVPDRFTGSGSGTDFTLTISSVQAEDLAVYYCQNDYSYPYTFGGGTKLEIKR
notes: mouse monoclonal antibody (hybridoma ATCC HB-12009)

binding result [2]: no binding | binding result [3]: no binding | binding result [4]: no binding | binding result [5]: no binding | binding result [6]: no binding | binding result [7]: no binding
B2: antibody CSL362 (antibody, V domains shown)
VH: EVQLVQSGAEVKKPGESLKISCKGSGYSFTDYYMKWARQMPGKGLEWMGDIIPSNGATFYNQKFKGQVTISADKSISTTYLQWSSLKASDTAMYYCARSHLLRASWFAYWGQGTMVTVSS
VL: DIVMTQSPDSLAVSLGERATINCESSQSLLNSGNQKNYLTWYQQKPGQPPKPLIYWASTRESGVPDRFSGSGSGTDFTLTISSLQAEDVAVYYCQNDYSYPYTFGQGTKLEIKR
